According to patent publication US20200164026A1, “Intranasal Delivery of Cell Permeant Therapeutics” (The Trustees of Columbia University in the City of New York, priority 2010, published 2020):

How the values were obtained:
[1] = tested on: rats subjected to tMCAo; test: Ischemic infarct volume (H&E) after intranasal Pen1-XBIR3 and tMCAo; type: in vivo, rat; conditions: 24 hpr, n=3
Protocol: (§1) Intranasal Delivery of Pen1-XBIR3. While under isofluorane anesthesia and lying on their backs, Pen1-XBIR3 (36.8 μM) was delivered to rats by administering 6 μl drops to alternating nares every two minutes for 20 minutes (60 μl total delivered). (Thorne, et al., Neuroscience 127 (2), 481-496 (2004)). Intranasal treatment was done prior to induction of stroke. Saline was used as a negative control. Brains were harvested for immunohistochemistry or western blotting.

[2] = Intranasal delivery of Pen1-XBIR3 to rat CNS; western blot (anti-HIS) of coronal brain slices; type: in vivo; conditions: intranasal 60 μl, 1 hr after delivery
Protocol: The following experiment was performed to ascertain if the Pen1-XBIR3 could also bypass the blood brain barrier via another delivery technique. […] (Dhuria, et al., J Pharm Sci 99 (4), 1654-1673 (2010); Liu, et al., J Stroke Cerebrovasc Dis 13 (1), 16-23 (2004); Liu, et al., J Neurol Sci 187 (1-2), 91-97 (2001)). This delivery method takes advantage of the olfactory pathway to bypass the blood brain barrier, however until now, proteins and compounds delivered via this method in rodent models have targeted extracellular targets, such as cell surface receptors. Since caspases, which are intracellular proteins, are targeted in this experiment, the cargo needed to be delivered intracellularly. […] Pent-XBIR3 was delivered intranasally to rats, after which brains were sliced coronally, and the presence of XBIR3 in the CNS determined by western blotting (FIG. 4A).
as §1

With “Pen1-XBIR3: BIR3 domain from XIAP, a specific caspase-9 inhibitor, disulfide-linked to Penetratin1 cell transduction peptide (SEQ ID NO: 10)” the ischemic infarct volume [1] was “reduces ischemic infarct volume”, the “presence of XBIR3 in brain slices (anterior to posterior)” value [2] was “delivered to all slices of the brain” and the “presence of XBIR3 in brain slices (anterior to posterior)” value ([2]; listed as Pent-XBIR3) was “throughout the rat CNS”.
